# Assay: yeast display, Sf9 membrane polyspecificity reagent, FACS + sequencing; frameworks hold sequencing errors
# Summary of the method: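 Galactose-induced (36–48 hours) yeast carrying a synthetic nanobody display library were exposed to 10% biotinylated, detergent-solubilized Sf9 membrane reagent at 4 °C for 1 hour. FACS followed streptavidin microbead enrichment, using low and high (top ~1%) gates for expression (anti-HA) and reagent binding (streptavidin). Colony PCR, MiSeq 2 × 250 sequencing and CDR-length filtering followed. Labels for polyreactivity reflect the gate of origin.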
row,Sequence,polyreactivity (PSR sort gate)
1,QVQLVESGGGLVQAGGSLRLSCAASGRTFFYYSMGWYRQAPGKERELVATITKRGGSTYYADSVKGRFTISRDNAKNTVYLQMNSLKPEDTAVYYCNATLGRTTAVFKYYWGQGTQVTVSS,high polyreactivity
2,QVQLVESGGGLVQAGGSLRLSCAASGRTFGANAMGWYRQAPGKERELVAGITSSGGSTSYADSVKGRFTISRDNAKNTVYLQMNSLKPEDTAVYYCAKDVYQHIFDVILGGYDSWGQGTQVTVSS,low polyreactivity
3,QVQLVESGGGLVQAGGSLRLSCAASGRTFGFNVMGRYRQAPGKERELVAAISWSGGSTYYADSVKGRFTISRDNAKNTVYLQMTSLKPEDTAVYYCNKRYVHRYGYWGQGTQVTVSS,low polyreactivity
4,QVQLVESGGGLVQAGGSLRLSCAASGRTFGGNAMGWYRQAPGKERELVAAISLSGGTTYYADSVKGRFTISRDNAKNTVYLQMHSLKPEDTAVYYCAARFKSVDYVQYYYWGQGTQVTVSS,low polyreactivity
5,QVQLVESGGGLVQAGGSLRLSCAASGRTFGGNAMGWYRQAPGKERELVAAITGRGGSTFYADSVKGRFTISRDNAKNTVYLQMNSLKPEDTAVYYCAKQFKRGYGYDYWGQGTQVTVSS,low polyreactivity
6,QVQLVESGGGLVQAGGSLRLSCAASGRTFGGNAMGWYRQAPGKERELVAAITGRGGSTYYADSVKGRFTISRDNAKNTVYLQMNSLKPEDTAVYYCAKQFKRGYGYDYWGQGTQVTVSS,low polyreactivity
7,QVQLVESGGGLVQAGGSLRLSCAASGRTFGGNGMGWYRQAPGKERELVASISFSGGAGTYYADSVKGRFTISRDIAKNTVYLQMNSLKPEDTAVYYCAKRYVTPTYRRYYWGQGTQVTVSS,high polyreactivity
8,QVQLVESGGGLVQAGGSLRLSCAASGRTFGGNVRVWYRQAPGKERELVAAISYSGRSTHYAESVKGRFTISRDNAKNTVILQMNSLKPEDTAVYYCNKPFPYYPDGPNGYDYWGQGTKVTVSS,low polyreactivity
9,QVQLVESGGGLVQAGGSLRLSCAASGRTFGGYALGWYRQAPGKARELVAAITWSDTSTYYADSVKGRFRFSRDNAKNTVYLQMNSLKPEDTAVYYCAAEQWYWWDDYWGKGTQVTVSS,high polyreactivity
10,QVQLVESGGGLVQAGGSLRLSCAASGRTFGGYAMGWYRQAPGKERELVAAISSGGGTYADSVKGRFTISRDNAKNTVYLQMNSLKPEDTAVYYCAAGSRWYWAYKPTVHYYYWGQGTQVTVSS,high polyreactivity
11,QVQLVESGGGLVQAGGSLRLSCAASGRTFGGYAMGWYRQAPGKERELVAAISYSGGSTYYADSVKGRFTISRDNAKNTVYLQMNSLKPEDTAVYYCAADGYDAYYWGQGTQVTVSS,low polyreactivity
12,QVQLVESGGGLVQAGGSLRLSCAASGRTFGHNAMGWYRQAPGKERELVAAISASGSNTYYADSVKGRFTISRDNAKNTVYLQMNSLKPEDTAVYYCAKQVYRTGQQSRYDYWGQGTQVTVSS,low polyreactivity
13,QVQLVESGGGLVQAGGSLRLSCAASGRTFGHYAMGWYRQAPGKERELVAAISCRGTSTYYADSVKGRFTISRDNAKNTVYLQMNSLKPEDTAVYYCAAVSVTSYRYDYWGQGTQVTVSS,high polyreactivity
14,QVQLVESGGGLVQAGGSLRLSCAASGRTFGINAMGWYRQAPGKERELVADITDSGVSTYYADSVKGRFTISRDNAKNTVYLQMNSLKPEDTAVYYCNTGSYLFFLYGDDYWGQGTQVTVSS,low polyreactivity
15,QVQLVESGGGLVQAGGSLRLSCAASGRTFGIYAMGRYRQAPGKERELVAAITGRGGSTHYADSVKGRFTISRDNAKNTVYLQMNSLKPEDTAVYYCAADYRYNRGITSNKDYDYWGQGTQVTVSS,low polyreactivity
16,QVQLVESGGGLVQAGGSLRLSCAASGRTFGIYAMGWYRQAPGKERELVAAITWSGDSTYYADSVKGRVTISRDNAKNTVYLQMNSLKPEDTAVYYGAADYVGVTSVRYDYWGQGTQVTVSS,low polyreactivity
17,QVQLVESGGGLVQAGGSLRLSCAASGRTFGIYAMGWYRQAPGKERELVADITIGGSTYYADSVKGRFTISRDNAKNTVYLQMNSLKPEDTAVYYCNADVVVQYYFTYYRVFTYDYWGQGTQVTVSS,low polyreactivity
18,QVQLVESGGGLVQAGGSLRLSCAASGRTFGIYAMGWYRQAPGKERELVASISWSGGRTYYADSVKGRFTISRDNAKNTVYLQMNSLIPEDTAVYYCAAYGVYYPRSWQYFDWYGYWGQGTQVTVSS,high polyreactivity
19,QVQLVESGGGLVQAGGSLRLSCAASGRTFGIYTMGWYRQAPGKERELVASTYYADSVKGRFTISRDNAKNTVYLQMNSLKPEDTAVYYCNVERLKKSQEWYGYPNDYWGQGTQVTVSS,low polyreactivity
20,QVQLVESGGGLVQAGGSLRLSCAASGRTFGKYAMAWYRQAPGKERELVAAITTRVVITYYADSVKGRFTISRDNAKNTVYLQMNSLKPEDTAVYYCAADPEKIYRPVNHYYYWGQGTQVTVSS,low polyreactivity
21,QVQLVESGGGLVQAGGSLRLSCAASGRTFGKYAMGWYIQAPGKEREFVAAISRSGGNTYYADSVKGRFTISRDNAKNTVYLQMNSLKPEDTAVYYCARGLSTYVLSHGLEYRTYYYWGQGTQVTVTS,high polyreactivity
22,QVQLVESGGGLVQAGGSLRLSCAASGRTFGKYAMGWYRQAPGKERELVARISRRGGTTYYADSVKGRFTISRDNAKNTVYLQMNSLKPEDTAVYYCAAGGTYGAVEEAHDSWGHGTQVTVSS,high polyreactivity

row,Sequence,polyreactivity (PSR sort gate)
1,QVQLVESGGGLVQAGGSLRLSCAASGRTFGKYTMGWYRQAPGKQRELFAAINRRGGSTYYADSVKGRFTISRDNANNTVYLQMNSLKPEDTAVYYCSTDGYSIDRYYWGQGTQVTESS,high polyreactivity
2,QVQLVESGGGLVQAGGSLRLSCAASGRTFGLNAMGWYIQAPGKERELVAAISGSGGRTYYADSVKGRFTISRDNAKNTVYLQMNSLKPEDTAVYYCARVPSGQLEYDYWGQGTQVTVSS,high polyreactivity
3,QVQLVESGGGLVQAGGSLRLSCAASGRTFGLNAMGWYRQAPGKEMELVAAITSGGSTYYADSVKGRFTISRDNAKNTVYLQMNSLKPEDTAVYYCAVTYNGDSSWPGDYWGQGTQVTVSS,low polyreactivity
4,QVQLVESGGGLVQAGGSLRLSCAASGRTFGLNAMGWYRQAPGKERELVAAITSGGSTYYADSVKGRFTISRDNAKNTVYLQMNSLKPEDTAVYYCAARYWRSYGISDILSDVDYWGQGTQVTVSS,low polyreactivity
5,QVQLVESGGGLVQAGGSLRLSCAASGRTFGLNVMGWYRQAPGKERELVAAISRSGGSTYYADSVKGRFTISRDNAKNTVYLQMNSLKPEDTAVYYCAAVSRYYPYGYWGQGTQVTVSS,high polyreactivity
6,QVQLVESGGGLVQAGGSLRLSCAASGRTFGLYAMGWYRQAPGKERELVAAISYSGGRTYYADSVKGRFTISRDNAKKTVYLQRNSLKPEDTAVYYCNKAWFPYYYYRFDYWGQGTQVTVSS,high polyreactivity
7,QVQLVESGGGLVQAGGSLRLSCAASGRTFGLYAMGWYRQAPGKERELVASNTYSGGRTNYADSVKGRFTISRDNAKNTVYLQMNSLKPEDTAVYYCAASLWDDDSRLMYYWGQGTQVTVSS,high polyreactivity
8,QVQLVESGGGLVQAGGSLRLSCAASGRTFGLYTKAWYIQAPGKERELVAAISSGGITYYADSVKGRFTISRDNAKNTVYLQMNSLKPEDTAVYYCAADFRTTRRYNYRYNYWGQGTQVTVSS,high polyreactivity
9,QVQLVESGGGLVQAGGSLRLSCAASGRTFGNYAMGWSRQAPGKERELVAAITFRGGSTYYADSVKGRFTISRDNAKNTVYLQMNSLKPEDTAVYYCNAERYVGHTYFQFDYWGQGTQVTVSS,high polyreactivity
10,QVQLVESGGGLVQAGGSLRLSCAASGRTFGNYAMGWYRQAPGKERELVASITYTVGNTYYADSVKGRFTISRDNAKNTVYLQMNSLKPEDTAVYYCAADGFYLQFYHYDYWGQGTQVTVSS,low polyreactivity
11,QVQLVESGGGLVQAGGSLRLSCAASGRTFGPNAMGWYRQAPGKEMELVATITYIGGSTYYADSVKGRFTISRDNAKNTVYLQMNSLKPEDTAVYYCAKRGGSYKEGDSWGQGTQVTVSS,low polyreactivity
12,QVQLVESGGGLVQAGGSLRLSCAASGRTFGPYALGWYRQAPGKERELVATSSSNGASTYYADSVKGRFTISRDNAKNTVYLQMNSLKPEDTAVYYCAAEFHFWGYLYDYWGQGTQVTVSS,low polyreactivity
13,QVQLVESGGGLVQAGGSLRLSCAASGRTFGPYAMGWYRQAPGKEREFVAAISYSGGSTYYADSVKGRFTISRDNAKNTVYLQMNSLKPEDTAVYYCAAETYYGRIYWYIRDYWGQGTQVTVSS,low polyreactivity
14,QVQLVESGGGLVQAGGSLRLSCAASGRTFGPYAMGWYRQAPGKERELVAAISSSEGSTYYADSVKGRFTISRDNAKNTVYLQMNSLKPEDTAVYYCNARYYLWSTTRWYGYDYWGQGTQVTVSS,high polyreactivity
15,QVQLVESGGGLVQAGGSLRLSCAASGRTFGPYAMGWYRQAPGKERELVATISSNGASTYYADSVKGRFTISRDNAKNTVYLQMNSLKPEDTAVYYCAAEFHFWGYLYDYWGQGTQVTVSS,low polyreactivity
16,QVQLVESGGGLVQAGGSLRLSCAASGRTFGPYTMGWYRQAPGKEREFVAAINSSGSRTYYADSVKGRFTISRDNAKNTVYLQMNSLKPEDTAVYYCAAEAKWYYSWSYPYEGDYWGQGSQVTVSS,low polyreactivity
17,QVQLVESGGGLVQAGGSLRLSCAASGRTFGQNAMGWYRQAPGKERELVAAISASGSNTYYADSVKGRFTISRDHAKNTVYLQMNSLKPEDTAVYYCAKQVYRPGQQSRYDYWGQGTQVTVSS,low polyreactivity
18,QVQLVESGGGLVQAGGSLRLSCAASGRTFGQYAMGWYRQAPGKERELVAAISWGGGRTYYADSVKGRFTISRDNAKNTVYLQMNSLKPEDTAVYYCNAVYSPRYYVGGYDYWGQGTQVTVSS,high polyreactivity
19,QVQLVESGGGLVQAGGSLRLSCAASGRTFGRNALGWYRQAPGKEREFVAAISRRGDTTYYADSVKGRFTISRDNAKNTVYLQMNSLKPEDTAVYYCNADVIKDRFYWYYYWGQGTQVTVSS,low polyreactivity
20,QVQLVESGGGLVQAGGSLRLSCAASGRTFGRNAMGWYRQAPGKEMELVAAISWTGGNTYYADSVKGRFTISRDNAKNTVYLQMNSLKPEDTAVYYCAARGRYVTPQPSYDYWGQGTQVTVSS,high polyreactivity
21,QVQLVESGGGLVQAGGSLRLSCAASGRTFGRNAMGWYRQAPRKERELVAAISDRGVSTYYADSVKGRFTISRDNAKNTVYLQMNSLKPEDTAVYYCAAVFWVDILPGDYWGQGTQVTVSS,low polyreactivity

# Reference: the nanobody polyreactivity screen of Harvey et al. (2022)
